Patent publication US20240301041A1 (Regeneron, published 2024)

Assays:
[1] = molecular target: T1, IgG binding protein (Protein A homolog SpsQ/SpsP) on MRSP S. pseudintermedius 88493 (Staphylococcus pseudintermedius); experiment: ELISA, coated S. pseudintermedius 88493, antibody 1.47E-13 M
T1 construct: whole, on cells; also called MRSP Staphylococcus pseudintermedius 88493 (methicillin-resistant)

[2] = molecular target: T2, IgG binding protein (Protein A homolog SpsQ/SpsP) on S. intermedius 27369 (Staphylococcus intermedius); experiment: ELISA, coated S. intermedius 27369, antibody 1.47E-13 M
T2 construct: whole, on cells; also called Staphylococcus intermedius 27369

[3] = molecular target: T3, IgG binding protein (Protein A homolog SpsQ/SpsP) on S. pseudintermedius AHDRCC 98200 (Staphylococcus pseudintermedius); experiment: ELISA, coated S. pseudintermedius 98200, antibody 4.82E-09 M
T3 construct: whole, on cells; also called S. pseudintermedius 98200; Staphylococcus pseudintermedius AHDRCC 98200

[4] = molecular target: T4, Protein A on the surface of S. aureus Newman wild-type (Staphylococcus aureus (strain Newman), UniProt P38507 37-477); experiment: ELISA, coated S. aureus Newman, antibody 6.03E-10 M
T4 construct: whole, on cells; also called S. aureus Newman WT; wild-type S. aureus expressing Protein A

[5] = molecular target: T4, Protein A on the surface of S. aureus …; experiment: flow cytometry; blocking antibody 1 ug/mL, then Alexa-488 Fc fragment (competitor) on wild-type S. aureus
[6] = molecular target: T2, IgG binding protein (Protein A homolog …); experiment: ELISA, coated S. intermedius 27369, antibody 6.03E-10 M
[7] = molecular target: T1, IgG binding protein (Protein A homolog …); experiment: ELISA, coated S. pseudintermedius 88493, antibody 1.18E-12 M
[8] = molecular target: T2, IgG binding protein (Protein A homolog …); experiment: ELISA, coated S. intermedius 27369, antibody 1.18E-12 M
[9] = molecular target: T1, IgG binding protein (Protein A homolog …); experiment: ELISA, coated S. pseudintermedius 88493, antibody 3.09E-07 M
[10] = molecular target: T4, Protein A on the surface of S. aureus …; experiment: ELISA, coated S. aureus Newman, antibody 9.42E-12 M
[11] = molecular target: T2, IgG binding protein (Protein A homolog …); experiment: ELISA, coated S. intermedius 27369, antibody 3.86E-08 M
[12] = molecular target: T4, Protein A on the surface of S. aureus …; experiment: ELISA, coated S. aureus Newman, antibody 3.86E-08 M
[13] = molecular target: T4, Protein A on the surface of S. aureus …; experiment: ELISA, coated S. aureus Newman, antibody 4.82E-09 M
[14] = molecular target: T4, Protein A on the surface of S. aureus …; experiment: flow cytometry; blocking antibody 1 ug/mL, then Alexa-488 VH3 hIgG1*/* antibody (competitor) on wild-type S. aureus
[15] = molecular target: T2, IgG binding protein (Protein A homolog …); experiment: ELISA, coated S. intermedius 27369, antibody 4.82E-09 M
[16] = molecular target: T3, IgG binding protein (Protein A homolog …); experiment: ELISA, coated S. pseudintermedius 98200, antibody 9.42E-12 M
[17] = molecular target: T4, Protein A on the surface of S. aureus …; experiment: ELISA on plate-coated S. aureus Newman WT (grown in TSB)
[18] = molecular target: T4, Protein A on the surface of S. aureus …; experiment: ELISA, coated S. aureus Newman, antibody 3.09E-07 M
[19] = molecular target: T1, IgG binding protein (Protein A homolog …); experiment: ELISA, coated S. pseudintermedius 88493, antibody 7.54E-11 M
[20] = molecular target: T5, Protein A (purified reagent) (Staphylococcus aureus, UniProt P38507 37-477); experiment: SPR (Biacore), mAb captured by anti-human Fc, Protein A injected, 25 C
T5 construct: also called Protein A (Calbiochem, 539202-5 MG); Protein A reagent

B1: H1xH15140P*/* (anti-Protein A) (antibody, V domains shown)
VH: EVQLVESGGGLVQPGGSLTLSCTASGFSFSSYVMSWVRQSPGKGLEWVSAIGGSGTSTYYRDSVKGRFTISRDNSKNTLNLQMSSLRAEDTAVYYCARDGLGHRDYWGQGTLVTVSS
VL: DIQMTQSPSSVSASVGDRVTITCRASQGINSWLAWYQQKPGKAPKLLIYAASSLQSGVPSRFSGSGSGTDFTLTISSLQPEDFATYYCQQANSFPFTFGPGTKVDIK
notes: also called anti-Protein A hIgG1*/*; H1xH15140P*/*-L1
[1]
  ELISA luminescent signal: 3470
[2]
  ELISA luminescent signal: 1510
[3]
  ELISA luminescent signal: 3400
[4]
  ELISA luminescent signal: 647000
[5]
  Fc: S. aureus blocking activity (%): 78%
[6]
  ELISA luminescent signal: 3340
[7]
  ELISA luminescent signal: 5990
[8]
  ELISA luminescent signal: 2460
[9]
  ELISA luminescent signal: 10700
[10]
  ELISA luminescent signal: 60500
[11]
  ELISA luminescent signal: 8310
[12]
  ELISA luminescent signal: 838000
[13]
  ELISA luminescent signal: 828000
[14]
  VH3 antibody: S. aureus blocking activity (%): 84.5%
[15]
  ELISA luminescent signal: 3030
[16]
  ELISA luminescent signal: 2480
[17]
  EC50: 0.0906 nM
[18]
  ELISA luminescent signal: 979000
[19]
  ELISA luminescent signal: 5410
[20]
  Kd: 0.204 nM
  koff: 7.78e-05 s⁻¹
  kon: 381000 M⁻¹ s⁻¹
  t½: 2.48 h
